# Source: US12668821B2, “Enzymatic production of glucaric acid from glucuronic acid” (THE GOVERNING COUNCIL OF THE UNIVERSITY OF TORONTO, priority 2019, dated 2026)
# Assays:
# [1] = Activity screening of GOOX variants and glucose oxidase on MeGlcA; format: biochemical; conditions: for nmol oxidized MeGlcA Mean: enzyme 16 nM, 37° C., 1 mM MeGlcA (FIG. 11 legend; b102 says 10 mM), 100 mM Tris pH 8.0 (GOOX variants) or 50 mM sodium acetate pH 5.0 (GO)
# Experimental: (§1) FIG. 11: Activity screening of GOOX variants and glucose oxidase (GO) on GlcA and MeGlcA substrates. The enzymes (16 nM) were assayed at 37° C. with 10 mM GlcA and 1 mM MeGlcA in 100 mM Tris buffer pH 8.0 (for GOOX variants) or 50 mM sodium acetate pH 5.0 (for GO). The dotted line indicates the activity of GOOX-VN for MeGlcA for ease of comparison. “CtCBM22A-wtGOOX” and “CtCBM22A-Y300A” represent fusion proteins where the C terminus of the xylan-binding protein CtCBM22A (described in Vuong and Master, 2014) is fused to the N terminus GOOX.
# (§2) The specific activity of GOOX-Y300A (16 nM) on MeGlcA and GlcA (1 mM) was measured in 50 mM Tris buffer pH 8.0 at 40° C. The amount of methyl glucaric acid was determined by measuring the release of H2O2 using a previously published colorimetric assay (Lin et al., 1991). The kinetics of GOOX-Y300A on these acidic sugars were measured at the same condition, but using up to 60 mM MeGlcA and GlcA and in 0.3 M Tris buffer pH 8.0.
# [2] = Activity screening of GOOX variants and glucose oxidase on GlcA; format: biochemical; conditions: for nmol oxidized GlcA Mean: enzyme 16 nM, 37° C., 10 mM GlcA (FIG. 11 legend; b102 says 100 mM), 100 mM Tris pH 8.0 (GOOX variants) or 50 mM sodium acetate pH 5.0 (GO); for activity with GlcA as substrate (in words): screening, compared with wtGOOX
# Experimental: as §1, §2
nmol oxidized MeGlcA Mean [1],"activity with MeGlcA as substrate (in words) ([1]; screening, compared with wtGOOX)",nmol oxidized GlcA Mean [2],activity with GlcA as substrate (in words) [2],Molecule
0.724 nmol,–,0.05669 nmol,improved activity over wtGOOX,"E247A: GOOX variant with E247A relative to SEQ ID NO: 1 (protein, listed as Sarocladium strictum, (1)..(206) FAD-binding domain; (207)..(474) substrate-binding domain) NSINACLAAADVEFHEEDSEGWEMDGTAFNLRVDYDPVAIAIPRSTEDIAAAVQCGLDAGVQISAKGGGHSYGSYGFGGEDGHLMLELDRMYRVSVDDDNVATIQGGARLGYTALELLDQGNRALTHGTCPAVGIGGHVLGGGYGFATHTHGLTLDWLVGATVVLADASIVHVSKTENADLFWALRGGGGGFAIVSEFEFNTFEAPEIITTYQVTTTWNRKQHVAGLKALQDWAENTMPRELSMRLAINANALNWEGNYFGNAKDLKKVLQPIMKKAGGKSTISKLVETDWYGQINTYLYGADLNITYNYDVHEYFYANSLTAPRLSDEAISAFVDYKFDNSSVRPGRGWWIQWDFHGGKNSALASHSNDETAYAHRDQLWLWQFYDNIYDYENNTSPYPESGFEFMQGFVATIEDTLPEDRKGKYFNYADTTLDKEEAQKLYWRGNLEKLQAIKAKYDPEDVFGNVVSVEPIA"
0.08201 nmol,–,-0.03749 nmol,–,"Y300N: GOOX variant with Y300N relative to SEQ ID NO: 1 (protein, listed as Sarocladium strictum, (1)..(206) FAD-binding domain; (207)..(474) substrate-binding domain) NSINACLAAADVEFHEEDSEGWEMDGTAFNLRVDYDPVAIAIPRSTEDIAAAVQCGLDAGVQISAKGGGHSYGSYGFGGEDGHLMLELDRMYRVSVDDDNVATIQGGARLGYTALELLDQGNRALTHGTCPAVGIGGHVLGGGYGFATHTHGLTLDWLVGATVVLADASIVHVSKTENADLFWALRGGGGGFAIVSEFEFNTFEAPEIITTYQVTTTWNRKQHVAGLKALQDWAENTMPRELSMRLEINANALNWEGNYFGNAKDLKKVLQPIMKKAGGKSTISKLVETDWYGQINTYLNGADLNITYNYDVHEYFYANSLTAPRLSDEAISAFVDYKFDNSSVRPGRGWWIQWDFHGGKNSALASHSNDETAYAHRDQLWLWQFYDNIYDYENNTSPYPESGFEFMQGFVATIEDTLPEDRKGKYFNYADTTLDKEEAQKLYWRGNLEKLQAIKAKYDPEDVFGNVVSVEPIA"
0.7166 nmol,–,0.06492 nmol,improved activity over wtGOOX,"W351A: GOOX variant with W351A relative to SEQ ID NO: 1 (protein, listed as Sarocladium strictum, (1)..(206) FAD-binding domain; (207)..(474) substrate-binding domain) NSINACLAAADVEFHEEDSEGWEMDGTAFNLRVDYDPVAIAIPRSTEDIAAAVQCGLDAGVQISAKGGGHSYGSYGFGGEDGHLMLELDRMYRVSVDDDNVATIQGGARLGYTALELLDQGNRALTHGTCPAVGIGGHVLGGGYGFATHTHGLTLDWLVGATVVLADASIVHVSKTENADLFWALRGGGGGFAIVSEFEFNTFEAPEIITTYQVTTTWNRKQHVAGLKALQDWAENTMPRELSMRLEINANALNWEGNYFGNAKDLKKVLQPIMKKAGGKSTISKLVETDWYGQINTYLYGADLNITYNYDVHEYFYANSLTAPRLSDEAISAFVDYKFDNSSVRPGRGWAIQWDFHGGKNSALASHSNDETAYAHRDQLWLWQFYDNIYDYENNTSPYPESGFEFMQGFVATIEDTLPEDRKGKYFNYADTTLDKEEAQKLYWRGNLEKLQAIKAKYDPEDVFGNVVSVEPIA"

# The remaining lines, values behind:
Molecule,nmol oxidized MeGlcA Mean [1],"activity with MeGlcA as substrate (in words) ([1]; screening, compared with wtGOOX)",nmol oxidized GlcA Mean [2],activity with GlcA as substrate (in words) [2]
"N388S: GOOX variant with N388S relative to SEQ ID NO: 1 (protein, listed as Sarocladium strictum, (1)..(206) FAD-binding domain; (207)..(474) substrate-binding domain) NSINACLAAADVEFHEEDSEGWEMDGTAFNLRVDYDPVAIAIPRSTEDIAAAVQCGLDAGVQISAKGGGHSYGSYGFGGEDGHLMLELDRMYRVSVDDDNVATIQGGARLGYTALELLDQGNRALTHGTCPAVGIGGHVLGGGYGFATHTHGLTLDWLVGATVVLADASIVHVSKTENADLFWALRGGGGGFAIVSEFEFNTFEAPEIITTYQVTTTWNRKQHVAGLKALQDWAENTMPRELSMRLEINANALNWEGNYFGNAKDLKKVLQPIMKKAGGKSTISKLVETDWYGQINTYLYGADLNITYNYDVHEYFYANSLTAPRLSDEAISAFVDYKFDNSSVRPGRGWWIQWDFHGGKNSALASHSNDETAYAHRDQLWLWQFYDSIYDYENNTSPYPESGFEFMQGFVATIEDTLPEDRKGKYFNYADTTLDKEEAQKLYWRGNLEKLQAIKAKYDPEDVFGNVVSVEPIA",1.4023 nmol,improved activity over wtGOOX,-0.02652 nmol,improved activity over wtGOOX
"E314A: GOOX variant with E314A relative to SEQ ID NO: 1 (protein, listed as Sarocladium strictum, (1)..(206) FAD-binding domain; (207)..(474) substrate-binding domain) NSINACLAAADVEFHEEDSEGWEMDGTAFNLRVDYDPVAIAIPRSTEDIAAAVQCGLDAGVQISAKGGGHSYGSYGFGGEDGHLMLELDRMYRVSVDDDNVATIQGGARLGYTALELLDQGNRALTHGTCPAVGIGGHVLGGGYGFATHTHGLTLDWLVGATVVLADASIVHVSKTENADLFWALRGGGGGFAIVSEFEFNTFEAPEIITTYQVTTTWNRKQHVAGLKALQDWAENTMPRELSMRLEINANALNWEGNYFGNAKDLKKVLQPIMKKAGGKSTISKLVETDWYGQINTYLYGADLNITYNYDVHAYFYANSLTAPRLSDEAISAFVDYKFDNSSVRPGRGWWIQWDFHGGKNSALASHSNDETAYAHRDQLWLWQFYDNIYDYENNTSPYPESGFEFMQGFVATIEDTLPEDRKGKYFNYADTTLDKEEAQKLYWRGNLEKLQAIKAKYDPEDVFGNVVSVEPIA",1.0403 nmol,–,-0.03292 nmol,–
"Q353N: GOOX variant with Q353N relative to SEQ ID NO: 1 (protein, listed as Sarocladium strictum, (1)..(206) FAD-binding domain; (207)..(474) substrate-binding domain) NSINACLAAADVEFHEEDSEGWEMDGTAFNLRVDYDPVAIAIPRSTEDIAAAVQCGLDAGVQISAKGGGHSYGSYGFGGEDGHLMLELDRMYRVSVDDDNVATIQGGARLGYTALELLDQGNRALTHGTCPAVGIGGHVLGGGYGFATHTHGLTLDWLVGATVVLADASIVHVSKTENADLFWALRGGGGGFAIVSEFEFNTFEAPEIITTYQVTTTWNRKQHVAGLKALQDWAENTMPRELSMRLEINANALNWEGNYFGNAKDLKKVLQPIMKKAGGKSTISKLVETDWYGQINTYLYGADLNITYNYDVHEYFYANSLTAPRLSDEAISAFVDYKFDNSSVRPGRGWWINWDFHGGKNSALASHSNDETAYAHRDQLWLWQFYDNIYDYENNTSPYPESGFEFMQGFVATIEDTLPEDRKGKYFNYADTTLDKEEAQKLYWRGNLEKLQAIKAKYDPEDVFGNVVSVEPIA",0.4522 nmol,–,0.09327 nmol,improved activity over wtGOOX
"Y72F: GOOX variant with Y72F relative to SEQ ID NO: 1 (protein, listed as Sarocladium strictum, (1)..(206) FAD-binding domain; (207)..(474) substrate-binding domain) NSINACLAAADVEFHEEDSEGWEMDGTAFNLRVDYDPVAIAIPRSTEDIAAAVQCGLDAGVQISAKGGGHSFGSYGFGGEDGHLMLELDRMYRVSVDDDNVATIQGGARLGYTALELLDQGNRALTHGTCPAVGIGGHVLGGGYGFATHTHGLTLDWLVGATVVLADASIVHVSKTENADLFWALRGGGGGFAIVSEFEFNTFEAPEIITTYQVTTTWNRKQHVAGLKALQDWAENTMPRELSMRLEINANALNWEGNYFGNAKDLKKVLQPIMKKAGGKSTISKLVETDWYGQINTYLYGADLNITYNYDVHEYFYANSLTAPRLSDEAISAFVDYKFDNSSVRPGRGWWIQWDFHGGKNSALASHSNDETAYAHRDQLWLWQFYDNIYDYENNTSPYPESGFEFMQGFVATIEDTLPEDRKGKYFNYADTTLDKEEAQKLYWRGNLEKLQAIKAKYDPEDVFGNVVSVEPIA",0.6279 nmol,–,0.05395 nmol,improved activity over wtGOOX
"Q353A: GOOX variant with Q353A relative to SEQ ID NO: 1 (protein, listed as Sarocladium strictum, (1)..(206) FAD-binding domain; (207)..(474) substrate-binding domain) NSINACLAAADVEFHEEDSEGWEMDGTAFNLRVDYDPVAIAIPRSTEDIAAAVQCGLDAGVQISAKGGGHSYGSYGFGGEDGHLMLELDRMYRVSVDDDNVATIQGGARLGYTALELLDQGNRALTHGTCPAVGIGGHVLGGGYGFATHTHGLTLDWLVGATVVLADASIVHVSKTENADLFWALRGGGGGFAIVSEFEFNTFEAPEIITTYQVTTTWNRKQHVAGLKALQDWAENTMPRELSMRLEINANALNWEGNYFGNAKDLKKVLQPIMKKAGGKSTISKLVETDWYGQINTYLYGADLNITYNYDVHEYFYANSLTAPRLSDEAISAFVDYKFDNSSVRPGRGWWIAWDFHGGKNSALASHSNDETAYAHRDQLWLWQFYDNIYDYENNTSPYPESGFEFMQGFVATIEDTLPEDRKGKYFNYADTTLDKEEAQKLYWRGNLEKLQAIKAKYDPEDVFGNVVSVEPIA",0.594 nmol,–,0.05212 nmol,improved activity over wtGOOX
